According to patent US8846873B2, “Antibodies directed to GPNMB and uses thereof” (Celldex Therapeutics, Inc., priority 2004, dated 2014):

Columns and labels:
[1] = tested on: CG56972-expressing cancer cell lines; experiment: Growth of CG56972-expressing cancer cell lines with naked CR011 or CR011 plus saporin-conjugated secondary antibody; format: cell-based; settings: for effect on CG56972 expressing cells / growth, naked antibody: used directly
Text: Fully human monoclonal antibodies (mAb)-IgG2 to CG56972/GPNMB, an antigen predominantly found on the surface of melanoma and brain tumor cells, were generated. The naked CR0111gG2 mAb (mAb 1.15) had no effect on CG56972 expressing cells either in vitro or in vivo. Thus we examined whether isotype switching from an IgG2 to an IgG1 might enable the mAb to kill human melanoma cells through ADCC effector functions.

[2] = biological target: T1, GPNMB (Homo sapiens, UniProt Q14956); experiment: ELISA of hybridoma supernatants for binding to GPNMB
T1 construct: made in house; host or cells: HEK 293
T1 sequence (Q14956 23-492): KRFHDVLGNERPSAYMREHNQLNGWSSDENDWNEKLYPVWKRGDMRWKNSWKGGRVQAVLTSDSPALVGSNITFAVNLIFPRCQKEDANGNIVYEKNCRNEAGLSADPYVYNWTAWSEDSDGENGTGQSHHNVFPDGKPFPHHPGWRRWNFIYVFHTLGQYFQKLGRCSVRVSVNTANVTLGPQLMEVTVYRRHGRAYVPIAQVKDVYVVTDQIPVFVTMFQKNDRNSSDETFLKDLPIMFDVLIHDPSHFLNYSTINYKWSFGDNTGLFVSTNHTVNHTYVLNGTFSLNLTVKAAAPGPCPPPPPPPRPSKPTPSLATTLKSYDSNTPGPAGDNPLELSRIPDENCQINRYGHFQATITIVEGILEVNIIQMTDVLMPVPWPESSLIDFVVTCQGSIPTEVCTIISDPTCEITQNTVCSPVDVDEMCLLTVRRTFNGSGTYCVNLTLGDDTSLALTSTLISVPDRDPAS
Procedure: After 14 days of culture, hybridoma supernatants were screened for GPNMB specific monoclonal antibodies. In the Primary screen, the ELISA plates (Fisher, Cat. No. 12-565-136) were coated with 50 μL/well of GPNMB (1 μg/mL) in Coating Buffer (0.1 M Carbonate Buffer, pH 9.6, NaHCO3 8.4 g/L), then incubated at 4° C. overnight. After incubation, the plates were washed with Washing Buffer (0.05% Tween 20 in PBS) three times. 200 μL/well Blocking Buffer (0.5% BSA, 0.1% Tween 20, 0.01% Thimerosal in 1×PBS) were added and the plates were incubated at room temperature for 1 h. After incubation, the plates were washed with Washing Buffer three times. Aliquots (50 μL/well) of hybridoma supernatants and positive and negative controls were added, and the plates were incubated at room temperature for 2 h. The positive control used throughout was serum from the relevant GPNMB immunized XenoMouse® mouse and the negative control was serum from the KLH-immunized relevant strain of XenoMouse® mouse. After incubation, the plates were washed three times with Washing Buffer. 100 μL/well of detection antibody goat anti-huIgGfc-HRP (Caltag, Cat. No. H10507, using concentration was 1:2000 dilution) was added and the plates were incubated at room temperature for 1 hour. After incubation, the plates were washed three times with Washing Buffer. 100 μl/well of TMB (BioFX Lab. Cat. No. TMSK-0100-01) was added, and the plates were allowed to develop for about 10 minutes (until negative control wells barely started to show color). 50 μl/well stop solution (TMB Stop Solution (BioFX Lab. Cat. No. STPR-0100-01) was then added and the plates were read on an ELISA plate reader at a wavelength of 450 nm.
Hybridoma supernatants were screened for binding to GPNMB by ELISA as described above in Example 2.

[3] = tested on: lymphoma or leukemia cell lines; experiment: Clonogenic assay with 1.15.1-AE (methylcellulose); format: cell-based; settings: various concentrations
Procedure: Lymphoma or leukemia cell lines were mixed with methylcellulose base media (R&D Systems, USA) and in various concentrations of unconjugated and Auristatin E-conjugated 1.15.1 antibody before plating onto 6-well tissue culture plates (Becton Dickinson, Franklin Lakes, N.J., USA). […] Plates were incubated at 37° C. and examined daily. On days 14-18, colonies on the plates were counted.

[4] = tested on: TK10; experiment: Anti GPNMB antibody mediated indirect cell killing (saporin secondary antibody-toxin conjugate, colony count); format: cell-based; settings: primary antibody 50 ng/mL plus goat anti-human IgG-saporin 100 ng/well
Procedure: UACC-62, a GPNMB antigen expressing cell line, and TK10, a non-expressing cell line were plated onto flat bottom 96-well tissue culture plates (Becton Dickinson, Franklin Lakes, N.J., USA) at a density of 3000 cells per well. Once the cells reached ˜25% confluency, 100 ng/well of secondary antibody-toxin conjugate (goat anti-human IgG-saporin; Advanced Targeting Systems, San Diego, USA, HUM-ZAP; cat. # IT-22) was added. Anti-GPNMB MAbs 2.10.2, 2.22.1, 1.15.1 or isotype control mAb (pK16.3) were added to each well at a final concentration of 10 or 50 ng/mL. An anti-EGFR monoclonal antibody (MS-269-PABX, NeoMarkers, Fremont, Calif., USA) was used as a positive primary antibody control. Chemotherapy reagent 5-FU at 600 uM was used as a positive reagent control. On day 5, the cells were trypsinized, transferred to 6-well tissue culture plates and incubated at 37° C. Plates were examined daily and between 8-10 days, all plates were Giemsa stained and colonies were counted.

[5] = biological target: T1, GPNMB; experiment: Binning of antibodies (Luminex competitive binding); settings: three bins of six anti-GPNMB antibodies
Procedure: Certain antibodies, described herein were binned in accordance with the protocol described in U.S. Patent Application Publication No. 20030157730. MxhIgG conjugated beads are prepared for coupling to primary antibody. The volume of supernatant needed is calculated using the following formula: (n+10)×50 μL (where n=total number of samples on plate). Where the concentration is known, 0.5 μg/mL is used. Bead stock is gently vortexed, then diluted in supernatant to a concentration of 2500 of each bead per well or 0.5×10^5/mL and incubated on a shaker in the dark at RT overnight, or 2 hours if at a known concentration of […]. Following aspiration, 50 μL of each bead is added to each well of filter plate, then washed once by adding 100 μL/well wash buffer and aspirating. Antigen and controls are added to filter plate 50 μL/well then covered and allowed to incubate in the dark for 1 hour on shaker. Following a wash step, a secondary unknown antibody is added at 50 μL/well using the same dilution (or concentration if known) as is used for the primary antibody. The plates are then incubated in the dark for 2 hours at RT on shaker followed by a wash step. Next, 50 μL/well biotinylated mxhIgG diluted 1:500 is added and allowed to incubate in the dark for 1 hour on shaker at RT. […]

B1: Mab1.15.1 (protein, listed as Homo sapiens)
chain: QVQLQESGPGLVKPSQTLSLTCTVSGGSISSFNYYWSWIRHHPGKGLEWIGYIYYSGSTYSNPSLKSRVTISVDTSKNQFSLTLSSVTAADTAVYYCARGYNWNYFDYWGQGTLVTVSSA
How did the “growth of CG56972-expressing cancer cells” value ([1]; combined with saporin-conjugated secondary antibody) turn out when B1 was run?
The value was “could specifically inhibit the growth”.

And the “effect on CG56972 expressing cells / growth, naked antibody” value [1]?
Its value is “no effect”.

What about the “effect on CG56972 expressing cells / growth, naked antibody” value ([1]; listed as CR011) of the same molecule?
Its value is “did not inhibit the growth”.

What about the “Avg OD” value ([2]; 12.3 ng/mL) of the same molecule?
The value was 0.168.

And the “Avg OD” value ([2]; 37 ng/mL)?
Its value is 0.381.

And the “Avg OD” value ([2]; 111 ng/mL)?
Its value is 0.701.

And the “Avg OD” value ([2]; 333 ng/mL)?
Its value is 0.902.

And the “Avg OD” value ([2]; 1 μg/mL)?
The value was 1.051.

And the “Avg OD” value ([2]; 3 μg/mL)?
The value was 1.159.

And the “effect on growth of all antigen positive hematopoietic cell lines” value [3]?
Its value is “no effect on growth”.

And the “cell death in GPNMB negative TK10 cells” value [4]?
The value was “less than 24%”.

What about the Bin [5] of the same molecule?
The Bin was “Bin 2”.
